Molecular target: T1, CHRD_VWC2 (Mus musculus (Mouse), UniProt Q9Z0E2)
T1 chain: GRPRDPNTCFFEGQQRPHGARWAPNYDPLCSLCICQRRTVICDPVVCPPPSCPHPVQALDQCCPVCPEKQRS
Assay: SPR, chordin VWC immobilised

B1: CV2 (protein)
chain: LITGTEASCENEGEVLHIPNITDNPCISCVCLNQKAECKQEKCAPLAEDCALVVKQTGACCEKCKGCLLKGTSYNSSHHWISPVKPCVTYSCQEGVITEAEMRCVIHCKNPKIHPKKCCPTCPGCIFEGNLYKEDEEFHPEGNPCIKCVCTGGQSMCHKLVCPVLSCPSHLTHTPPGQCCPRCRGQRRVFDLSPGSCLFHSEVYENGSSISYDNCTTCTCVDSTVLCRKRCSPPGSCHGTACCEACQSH
- Kd: 0.145 µM
